In patent US9951373B2, “Oplophorus-derived luciferases, novel coelenterazine substrates, and methods of use” (Promega Corporation, priority 2010, dated 2018):

What was measured:
[1] = tested on: antioxidant response element (ARE); test: Transcriptional reporter, reverse transfection, ARE in HEK293 cells; type: cell-based, human; details: 100 ng DNA, 24 h
Protocol: HEK293 cells were trypsinized (T75 flask, 3 mL trypsin) and resuspended in […] (approximately 8.9×10^6 total cells) in medium containing DMEM+10% FBS+1×NEAA. Each transcriptional reporter was prepared for transfection by mixing 1.2 mL OPTI-MEM®, 12 μL transcription reporter DNA (100 ng) and 36 μL FUGENE® HD transfection reagent together and incubated at room temperature for 35 min. Following incubation, 624 μL of the transfection/reporter DNA mixture was added to 12 mL of cell suspension and mixed by inversion. After mixing, 100 μL of the cell/DNA mixture was added to wells of a 96-well plate (2 constructs/plate). The cells were incubated at 37° C. for 22 hrs. Tert-butylhydroquinone (a Nrf2 stabilizer; tBHQ; 1 μM (“baseline”) or 20 μM) or sulphoraphane, (an organosulfer antioxidant known to activate Nrf2; 1 μM (“baseline”) or 20 μM) in OPTI-MEM® was added to each well and incubated at 37° C. for 24 hrs. Cells were lysed with 100 μL lytic reagent as described above for the forward transfection. Luminescence was measured on a GLOMAX® Luminometer.

[2] = tested on: heat shock response element (HRE); test: Transcriptional reporter, bulk transfection, HRE in HeLa cells; type: cell-based; details: 6 h
Protocol: (§1) The transcriptional reporter containing HRE and 9B8 opt-P was used in the bulk transfection of HeLa cells
(§2) HEK293, NIH3T3, or HeLa cells were plated to a single well of a 6-well tissue culture plate the day before transfection at a density of 4.5×10^5 cells/well in 3 mL complete medium (DMEM+10% FBS+1×NEAA+1× sodium pyruvate) for HEK293 cells, 3×10^5 cells/well in 3 mL complete medium (DMEM+10% fetal calf serum (FCS)+1×NEAA+1× sodium pyruvate) for NIH3T3 cells, or 9.9×10^5 cells/well in 3 mL complete medium (DMEM+10% FBS+1×NEAA) for HeLa cells. Cells were grown overnight at 37° C.
(§3) 3,300 ng of reporter plasmid DNA in 155 μL OPTI-MEM® was mixed with 9.9 μL FUGENE® HD transfection reagent, vortexed briefly, and incubated at room temperature for 10 min. The CRE transcriptional reporters were used to transfect HEK293 and NIH3T3 cells. The HRE transcriptional reporters were used to transfect HeLa cells. The reporter mixture was added to cells and mixed by gentle rocking followed by incubation at 37° C. for 6 hrs (HEK293 and NIH3T3) or 3 hrs (HeLa). […]
(§4) FSK (CRE stimulator) or 17-AAG (HRE stimulator; 17-Allylamino-demethoxy geldanamycin) in OPTI-MEM® was added to the cells (10 nM or 10 μM final concentration for FSK; 1 nM or 1 μM final concentration for 17-AAG) and incubated at 37° C. for 4 hrs (FSK) or 6 hrs (17-AAG). […] Luminescence was measured on a GLOMAX® Luminometer.

[3] = tested on: cAMP response element (CRE); test: Transcriptional reporter, forward transfection, CRE in HEK293 cells; type: cell-based, human; details: 3 h; for baseline: 10 nM FSK
Protocol: HEK293 cells were plated at 15,000 cells/well in six 96-well tissue culture plates. Cells were grown in 100 μL of DMEM+10% FBS+1× non-essential amino acids (NEAA) and incubated overnight at 37° C. The cells were transiently transfected with either 10 ng or 100 ng plasmid DNA/well of pGL4.29 9B8 opt, pGL4.29 9B8 opt-P, or pGL4.29. Plasmid DNA was mixed with 850 μL of OPTI-MEMO (Invitrogen) and 32.4 μL of FUGENE® HD transfection reagent (Promega Corp.) and incubated at room temperature for 10 min. Eight μL of the transfection/reporter DNA mixture was added to the appropriate wells (2 constructs/plate). Cells were incubated for 4 hrs at 37° C. The medium was replaced with OPTI-MEM®+0.5% dialyzed FBS+1×NEAA+1× sodium pyruvate+1× Penn-Strep and incubated overnight at 37° C.
A lytic reagent containing 100 mM MES pH 6.1, 1 mM CDTA, 150 mM KCl, 35 mM thiourea, 2 mM DTT, 0.25% TERGITOLO NP-9 (v/v), 0.025% MAZUO DF 204, and 20 μM PBI-3939 was added to the cells containing pGL4.29 9B8 opt or pGL4.29 9B8 opt-P and allowed to incubated for 10 min at room temperature (100 μL lytic reagent added to 100 μL cells). ONE-GLO™ assay reagent (Promega Corp.) was added to cells containing pGL4.29 and used according to the manufacturer's protocol (100 μL reagent added to 100 μL cells). Luminescence was measured on a GLOMAX® Luminometer.

[4] = tested on: CRE; test: Transcriptional reporter, bulk transfection, CRE in NIH3T3 cells; type: cell-based; details: NIH3T3, 10 nM FSK, 4 h
Protocol: as §1, §2, §3, §4

[5] = tested on: CRE; test: Transcriptional reporter, bulk transfection, CRE in HEK293 cells; type: cell-based, human; details: HEK293, 10 nM FSK, 4 h
Protocol: as §1, §2, §3, §4

B1: 9B8 opt-P: 9B8 opt further comprising the PEST protein degradation sequence (SEQ ID NO: 65) (protein)
chain: MVFTLEDFVGDWRQTAGYNLDQVLEQGGLSSLFQKLGVSVTPIQKIVLSGENGLKIDIHVIIPYEGLSGYQMGQIEKIFKVVYPVDDHHFKVILHYGTLVIDGVTPNMIDYFGRPYEGIAVFDGKKITVTGTLWNGNKIIDERLINPDGSLLFRVTINGVTGWRLCERILANSHGFPPEVEEQAAGTLPMSCAQESGMDRHPAACASARINV
modifications: PEST degradation sequence
Question: With B1 as the molecule, how does the “RLU (20 μM sulphoraphane)” value [1] read?
Answer: 3,940,000 RLU

Question: And the “RLU (20 μM tBHQ)” value [1]?
Answer: 8,460,000 RLU

Question: What about the baseline ([1]; 1 μM sulphoraphane) of the same molecule?
Answer: 258,406 RLU

Question: What about the baseline ([1]; 1 μM tBHQ) of the same molecule?
Answer: 317,238 RLU

Question: What about the baseline [2] of the same molecule?
Answer: 278,118 RLU

Question: And the baseline ([3]; 10 ng DNA)?
Answer: 11179 RLU

Question: And the “RLU (10 µM FSK)” value ([3]; 10 ng DNA)?
Answer: 1,353,459 RLU

Question: And the Response ([3]; 10 ng DNA)?
Answer: 121

Question: And the baseline ([3]; 100 ng DNA)?
Answer: 122,071 RLU

Question: And the “RLU (10 µM FSK)” value ([3]; 100 ng DNA)?
Answer: 20,544,753 RLU

Question: And the Response ([3]; 100 ng DNA)?
Answer: 168

Question: And the baseline [4]?
Answer: 410,461 RLU

Question: And the baseline [5]?
Answer: 3,960,000 RLU
